The assay addresses T1, human tissue factor pathway inhibitor (TFPI) (human, UniProt P10646 29-304, biotinylated in the ELISA (site not stated)).
T1 construct: Full length TFPI and a short version, TFPIB161B (first two Kunitz domains), were both used for immunisation and ELISA; also called TFPI1; human TFPI1
T1 sequence: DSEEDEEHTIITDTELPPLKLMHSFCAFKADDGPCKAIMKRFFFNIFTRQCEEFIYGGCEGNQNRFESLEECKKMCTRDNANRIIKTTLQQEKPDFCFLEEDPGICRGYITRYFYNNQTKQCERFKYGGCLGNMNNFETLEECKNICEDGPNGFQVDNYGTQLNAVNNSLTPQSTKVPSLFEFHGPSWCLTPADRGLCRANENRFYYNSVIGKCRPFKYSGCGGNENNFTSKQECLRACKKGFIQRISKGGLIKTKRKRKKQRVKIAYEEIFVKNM
As to the kind of experiment: hybridoma screening; ELISA with antibody captured on anti-mouse IgG and soluble biotinylated human TFPI or TFPIB161B, as described in the methods. On the procedure:
Immunoplates were coated with anti-mouse IgG. Culture supernatants from the hybridoma cells were added to the plates and, after washing, soluble biotinylated human TFPI or TFPIB161B was added to test for specific binding.

B1: TFPI-3F18A4B1 (antibody, IgG1, V domains shown)
VH: EVKLVESGGGLVKPGGSLRLSCAASGFTFSNYALSWVRQTPDKRLEWVASISSGGATYYPDSVEGRFTISRDNVRNILYLQMSSLQSEDTAMYYCTRGAYGSDYFDYWGQGTTLTVSS
VL: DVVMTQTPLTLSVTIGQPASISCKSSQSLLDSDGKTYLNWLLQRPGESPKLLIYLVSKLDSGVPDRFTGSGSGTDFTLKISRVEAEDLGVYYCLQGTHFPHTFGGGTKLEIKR
notes: also called TFPI-3F18A2; anti-TFPI antibody 3F18
On to B1, for which the binding result is listed as “binds”.
